Patent US20250135039A1, “INHIBITOR-RESISTANT MGMT MODIFICATIONS AND MODIFICATION OF MGMT-ENCODING NUCLEIC ACIDS” (Ensoma, Inc., priority 2022, published 2025)

System: U251 human glioblastoma cell line
Test: in vitro FM-HCR assay of MGMT activity (mPlum O^6MeG reporter plasmid)
Assay type: cell-based
Details: for Reporter expression (%) mean, O^6BG: 100 μM O^6BG; for Reporter expression (%) mean, O^6BG / Reporter expression (%) mean, DMSO: U251 cells, flow cytometry 24 h after transfection, damaged/undamaged reporter, inversely related to MGMT activity; for Reporter expression (%) mean, DMSO: 0.1% DMSO; for MGMT activity (a.u.) DMSO / MGMT activity (% of WT) DMSO: DMSO condition; for MGMT activity (a.u.) DMSO / MGMT activity (a.u.) O^6BG: determined from percent reporter expression; for MGMT activity (% of WT) DMSO / MGMT activity (% of WT) O^6BG: relative to wild-type MGMT in same condition; for Relative MGMT activity (%): MGMT activity (a.u.) in O^6BG divided by DMSO x 100, higher values indicate resistance; for MGMT activity (a.u.) O^6BG / MGMT activity (% of WT) O^6BG: O^6BG condition; for Ratio percent reporter expression (O^6BG/DMSO): lower values indicate resistance to O^6BG; for O^6BG resistance relative to WT (%): percentage difference in relative MGMT activity between variant and wild-type MGMT
Summary of the method: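 U251 cells transfected with MGMT variant plasmid, mPlum O^6MeG reporter (or undamaged mPlum plasmid) and BFP control, in 100 μM O^6BG or 0.1% DMSO; flow cytometry at 24 h. mPlum count×intensity normalized to BFP; percent reporter expression = damaged/undamaged ×100, inversely related to MGMT activity.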

B1: G156V: MGMT polypeptide with mutation G156V (protein)
chain: MDKDCEMKRTTLDSPLGKLELSGCEQGLHEIKLLGKGTSAADAVEVPAPAAVLGGPEPLMQCTAWLNAYFHQPEAIEEFPVPALHHPVFQQESFTRQVLWKLLKVVKFGEVISYQQLAALAGNPKAARAVGGAMRGNPVPILIPCHRVVCSSGAVVNYSGGLAVKEWLLAHEGHRLGKPGLGGSSGLAGAWLKGAGATSGSPPAGRN
Reporter expression (%) mean, O^6BG: 55.0%
Reporter expression (%) mean, DMSO: 36.8%
MGMT activity (a.u.) DMSO: 2.72 a.u.
MGMT activity (% of WT) DMSO: 50.3 % of WT
Relative MGMT activity (%): 66.8%
MGMT activity (a.u.) O^6BG: 1.82 a.u.
MGMT activity (% of WT) O^6BG: 127.3 % of WT
Ratio percent reporter expression (O^6BG/DMSO): 1.50
O^6BG resistance relative to WT (%): 152.8%

B2: Y158F: MGMT polypeptide with mutation Y158F (protein)
chain: MDKDCEMKRTTLDSPLGKLELSGCEQGLHEIKLLGKGTSAADAVEVPAPAAVLGGPEPLMQCTAWLNAYFHQPEAIEEFPVPALHHPVFQQESFTRQVLWKLLKVVKFGEVISYQQLAALAGNPKAARAVGGAMRGNPVPILIPCHRVVCSSGAVGNFSGGLAVKEWLLAHEGHRLGKPGLGGSSGLAGAWLKGAGATSGSPPAGRN
Reporter expression (%) mean, O^6BG: 61.3%
Reporter expression (%) mean, DMSO: 12.3%
MGMT activity (a.u.) DMSO: 8.11 a.u.
MGMT activity (% of WT) DMSO: 150.0 % of WT
Relative MGMT activity (%): 20.1%
MGMT activity (a.u.) O^6BG: 1.63 a.u.
MGMT activity (% of WT) O^6BG: 114.1 % of WT
Ratio percent reporter expression (O^6BG/DMSO): 4.97
O^6BG resistance relative to WT (%): −23.9%

B3: Y158H: MGMT polypeptide with mutation Y158H (protein)
chain: MDKDCEMKRTTLDSPLGKLELSGCEQGLHEIKLLGKGTSAADAVEVPAPAAVLGGPEPLMQCTAWLNAYFHQPEAIEEFPVPALHHPVFQQESFTRQVLWKLLKVVKFGEVISYQQLAALAGNPKAARAVGGAMRGNPVPILIPCHRVVCSSGAVGNHSGGLAVKEWLLAHEGHRLGKPGLGGSSGLAGAWLKGAGATSGSPPAGRN
Reporter expression (%) mean, O^6BG: 30.3%
Reporter expression (%) mean, DMSO: 23.3%
MGMT activity (a.u.) DMSO: 4.29 a.u.
MGMT activity (% of WT) DMSO: 79.3 % of WT
Relative MGMT activity (%): 76.9%
MGMT activity (a.u.) O^6BG: 3.30 a.u.
MGMT activity (% of WT) O^6BG: 230.8 % of WT
Ratio percent reporter expression (O^6BG/DMSO): 1.30
O^6BG resistance relative to WT (%): 191.1%

B4: Y158M: MGMT polypeptide with mutation Y158M (protein)
chain: MDKDCEMKRTTLDSPLGKLELSGCEQGLHEIKLLGKGTSAADAVEVPAPAAVLGGPEPLMQCTAWLNAYFHQPEAIEEFPVPALHHPVFQQESFTRQVLWKLLKVVKFGEVISYQQLAALAGNPKAARAVGGAMRGNPVPILIPCHRVVCSSGAVGNMSGGLAVKEWLLAHEGHRLGKPGLGGSSGLAGAWLKGAGATSGSPPAGRN
Reporter expression (%) mean, O^6BG: 60.0%
Reporter expression (%) mean, DMSO: 47.7%
MGMT activity (a.u.) DMSO: 2.10 a.u.
MGMT activity (% of WT) DMSO: 38.8 % of WT
Relative MGMT activity (%): 79.4%
MGMT activity (a.u.) O^6BG: 1.67 a.u.
MGMT activity (% of WT) O^6BG: 116.7 % of WT
Ratio percent reporter expression (O^6BG/DMSO): 1.26
O^6BG resistance relative to WT (%): 200.6%

B5: Y158W: MGMT polypeptide with mutation Y158W (protein)
chain: MDKDCEMKRTTLDSPLGKLELSGCEQGLHEIKLLGKGTSAADAVEVPAPAAVLGGPEPLMQCTAWLNAYFHQPEAIEEFPVPALHHPVFQQESFTRQVLWKLLKVVKFGEVISYQQLAALAGNPKAARAVGGAMRGNPVPILIPCHRVVCSSGAVGNWSGGLAVKEWLLAHEGHRLGKPGLGGSSGLAGAWLKGAGATSGSPPAGRN
Reporter expression (%) mean, O^6BG: 86.7%
Reporter expression (%) mean, DMSO: 26.0%
MGMT activity (a.u.) DMSO: 3.85 a.u.
MGMT activity (% of WT) DMSO: 71.2 % of WT
Relative MGMT activity (%): 30.0%
MGMT activity (a.u.) O^6BG: 1.15 a.u.
MGMT activity (% of WT) O^6BG: 80.8 % of WT
Ratio percent reporter expression (O^6BG/DMSO): 3.33
O^6BG resistance relative to WT (%): 13.5%

B6: S159F: MGMT polypeptide with mutation S159F (protein)
chain: MDKDCEMKRTTLDSPLGKLELSGCEQGLHEIKLLGKGTSAADAVEVPAPAAVLGGPEPLMQCTAWLNAYFHQPEAIEEFPVPALHHPVFQQESFTRQVLWKLLKVVKFGEVISYQQLAALAGNPKAARAVGGAMRGNPVPILIPCHRVVCSSGAVGNYFGGLAVKEWLLAHEGHRLGKPGLGGSSGLAGAWLKGAGATSGSPPAGRN
Reporter expression (%) mean, O^6BG: 102.7%
Reporter expression (%) mean, DMSO: 23.0%
MGMT activity (a.u.) DMSO: 4.35 a.u.
MGMT activity (% of WT) DMSO: 80.4 % of WT
Relative MGMT activity (%): 22.4%
MGMT activity (a.u.) O^6BG: 0.97 a.u.
MGMT activity (% of WT) O^6BG: 68.2 % of WT
Ratio percent reporter expression (O^6BG/DMSO): 4.46
O^6BG resistance relative to WT (%): −15.2%

B7: S159I: MGMT polypeptide with mutation S159I (protein)
chain: MDKDCEMKRTTLDSPLGKLELSGCEQGLHEIKLLGKGTSAADAVEVPAPAAVLGGPEPLMQCTAWLNAYFHQPEAIEEFPVPALHHPVFQQESFTRQVLWKLLKVVKFGEVISYQQLAALAGNPKAARAVGGAMRGNPVPILIPCHRVVCSSGAVGNYIGGLAVKEWLLAHEGHRLGKPGLGGSSGLAGAWLKGAGATSGSPPAGRN
Reporter expression (%) mean, O^6BG: 40.3%
Reporter expression (%) mean, DMSO: 18.0%
MGMT activity (a.u.) DMSO: 5.56 a.u.
MGMT activity (% of WT) DMSO: 102.8 % of WT
Relative MGMT activity (%): 44.6%
MGMT activity (a.u.) O^6BG: 2.48 a.u.
MGMT activity (% of WT) O^6BG: 173.6 % of WT
Ratio percent reporter expression (O^6BG/DMSO): 2.24
O^6BG resistance relative to WT (%): 68.9%

B8: S159W: MGMT polypeptide with mutation S159W (protein)
chain: MDKDCEMKRTTLDSPLGKLELSGCEQGLHEIKLLGKGTSAADAVEVPAPAAVLGGPEPLMQCTAWLNAYFHQPEAIEEFPVPALHHPVFQQESFTRQVLWKLLKVVKFGEVISYQQLAALAGNPKAARAVGGAMRGNPVPILIPCHRVVCSSGAVGNYWGGLAVKEWLLAHEGHRLGKPGLGGSSGLAGAWLKGAGATSGSPPAGRN
Reporter expression (%) mean, O^6BG: 108.0%
Reporter expression (%) mean, DMSO: 31.3%
MGMT activity (a.u.) DMSO: 3.19 a.u.
MGMT activity (% of WT) DMSO: 59.0 % of WT
Relative MGMT activity (%): 29.0%
MGMT activity (a.u.) O^6BG: 0.93 a.u.
MGMT activity (% of WT) O^6BG: 64.8 % of WT
Ratio percent reporter expression (O^6BG/DMSO): 3.45
O^6BG resistance relative to WT (%): 9.8%

B9: S159Y: MGMT polypeptide with mutation S159Y (protein)
chain: MDKDCEMKRTTLDSPLGKLELSGCEQGLHEIKLLGKGTSAADAVEVPAPAAVLGGPEPLMQCTAWLNAYFHQPEAIEEFPVPALHHPVFQQESFTRQVLWKLLKVVKFGEVISYQQLAALAGNPKAARAVGGAMRGNPVPILIPCHRVVCSSGAVGNYYGGLAVKEWLLAHEGHRLGKPGLGGSSGLAGAWLKGAGATSGSPPAGRN
Reporter expression (%) mean, O^6BG: 142.7%
Reporter expression (%) mean, DMSO: 26.0%
MGMT activity (a.u.) DMSO: 3.85 a.u.
MGMT activity (% of WT) DMSO: 71.2 % of WT
Relative MGMT activity (%): 18.2%
MGMT activity (a.u.) O^6BG: 0.70 a.u.
MGMT activity (% of WT) O^6BG: 49.1 % of WT
Ratio percent reporter expression (O^6BG/DMSO): 5.49
O^6BG resistance relative to WT (%): −31.0%

B10: G160A: MGMT polypeptide with mutation G160A (protein)
chain: MDKDCEMKRTTLDSPLGKLELSGCEQGLHEIKLLGKGTSAADAVEVPAPAAVLGGPEPLMQCTAWLNAYFHQPEAIEEFPVPALHHPVFQQESFTRQVLWKLLKVVKFGEVISYQQLAALAGNPKAARAVGGAMRGNPVPILIPCHRVVCSSGAVGNYSAGLAVKEWLLAHEGHRLGKPGLGGSSGLAGAWLKGAGATSGSPPAGRN
Reporter expression (%) mean, O^6BG: 74.5%
Reporter expression (%) mean, DMSO: 15.5%
MGMT activity (a.u.) DMSO: 6.45 a.u.
MGMT activity (% of WT) DMSO: 119.4 % of WT
Relative MGMT activity (%): 20.8%
MGMT activity (a.u.) O^6BG: 1.34 a.u.
MGMT activity (% of WT) O^6BG: 94.0 % of WT
Ratio percent reporter expression (O^6BG/DMSO): 4.81
O^6BG resistance relative to WT (%): −21.3%

B11: G160D: MGMT polypeptide with mutation G160D (protein)
chain: MDKDCEMKRTTLDSPLGKLELSGCEQGLHEIKLLGKGTSAADAVEVPAPAAVLGGPEPLMQCTAWLNAYFHQPEAIEEFPVPALHHPVFQQESFTRQVLWKLLKVVKFGEVISYQQLAALAGNPKAARAVGGAMRGNPVPILIPCHRVVCSSGAVGNYSDGLAVKEWLLAHEGHRLGKPGLGGSSGLAGAWLKGAGATSGSPPAGRN
Reporter expression (%) mean, O^6BG: 72.8%
Reporter expression (%) mean, DMSO: 23.0%
MGMT activity (a.u.) DMSO: 4.35 a.u.
MGMT activity (% of WT) DMSO: 80.4 % of WT
Relative MGMT activity (%): 31.6%
MGMT activity (a.u.) O^6BG: 1.37 a.u.
MGMT activity (% of WT) O^6BG: 96.2 % of WT
Ratio percent reporter expression (O^6BG/DMSO): 3.16
O^6BG resistance relative to WT (%): 19.6%
